Assay [1] deals with T1, CD47 on the surface of tumor cells (human, UniProt Q08722 19-323).
T1 construct: whole, on cells; Same protein as m4; also called CD47 antigen on the surface of U937 and CCRF cells; SKOV-3
In words: FACS blocking assay on U937 cells; blocked ligand FITC-labelled rhSIRPα-Fc.

The next assay deals with T2, CD47-His (human, UniProt Q08722 19-139, limits assumed).
T2 construct: not shown: His tag
Put plainly: Fortebio BLI.

For assay [2], the target named is T1, CD47 on the surface of tumor cells. In words: FACS blocking assay on CCRF cells; blocked ligand FITC-labelled rhSIRPα-Fc.
In assay [3] the target is T3, recombinant antigen of the extracellular region of CD47 (Sino Biological, Cat: 12283-H08H) (human, UniProt Q08722 19-139).
T3 construct: extracellular domain; also called recombinant CD47 extracellular region; CD47 recombinant protein
In words: Fortebio BLI, recombinant CD47 extracellular region.

Assay [4] concerns the target T3, recombinant antigen of the …. Put plainly: Fortebio Octet QKe, antibody on AHC sensor, CD47 100 nM in solution.
Method: The affinity of the antibody was determined by Octet QKe instrument of Fortebio Company. […] The kinetic parameters were determined.
Assay [5] addresses T1, CD47 on the surface of tumor cells. Put plainly: FACS on U937 cells.
Assay [6] has the same target. Put plainly: FACS on CCRF cells.
In assay [7] the target is T3, recombinant antigen of the …. Put plainly: Fortebio BLI, antibody on AHC sensor, CD47 extracellular region 100 nM; Table 6 (heavy chain mutant series).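 Note: antibody held on the sensor through anti-human Fc capture, CD47 antigen in solution, association and dissociation phases each lasting 300 s.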
Method: (§1) The affinity between the obtained mutant antibody and the CD47 recombinant protein was determined by Fortebio. The antibody was immobilized on the surface of a sensor with the anti-human Fc capture antibody (AHC Sensor), and reacted with the recombinant antigen of the extracellular region of CD47 (with a working concentration of 100 nM) in the liquid phase. The duration for binding and dissociation was both 300 seconds. The kinetic parameters were determined.
For assay [8] the target is unchanged. In words: Fortebio BLI, antibody on AHC sensor, CD47 extracellular region 100 nM.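 Note: antibody held on the sensor through anti-human Fc capture, CD47 antigen in solution, association and dissociation phases each lasting 300 s.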
Method: as §1

B1: humanized 140 (hz140) (antibody, human IgG4 S228P, kappa, V domains shown)
VH: QVQLVQSGAEVKKPGASVKVSCKASGYKFTNYVMHWVRQAPGQRLEWMGYINPYNDGIKYNEKFTGRVTITRDTSASTAYMELSSLRSEDTAVYYCAREGDFYANYGRLGFAYWGQGTLVTVSS
VL: DIQMTQSPSSLSASVGDRVTITCRASQDITNYLNWYQQKPGKAPKLLIYYTSRLHSGVPSRFSGSGSGTDYTFTISSLQPEDIATYFCQQGDTFPRTFGGGTKVEIKR
notes: also called anti-CD47 monoclonal antibody; anti-CD47 sidearm monoclonal antibody
B1: the “IC50 (read off the curve)” value in assay [1] and in [2] was roughly 0.3 µg/mL each time. Moreover, the figures for the Kd (with CD47-His; in assay [3]; in assay [4]) were 1.5 nM, 0.688 nM and 1.89 nM, respectively. The figures for the koff (in the assay with CD47-His; in assay [3]; in assay [4]) were 0.00037 s⁻¹, 0.00022 s⁻¹ and 0.000933 s⁻¹, respectively. The results for the kon (with CD47-His; in assay [3]; in assay [4]) were 247000 M⁻¹ s⁻¹, 320000 M⁻¹ s⁻¹ and 493000 M⁻¹ s⁻¹, respectively. In addition, the figures for the “EC50 (read off the curve)” value in assay [5] and in [6] were roughly 0.2 µg/mL and roughly 0.06 µg/mL, respectively.

B2: hz140-H/hz182-L (antibody, V domains shown)
VH: QVQLVQSGAEVKKPGASVKVSCKASGYKFTNYVMHWVRQAPGQRLEWMGYINPYNDGIKYNEKFTGRVTITRDTSASTAYMELSSLRSEDTAVYYCAREGDFYANYGRLGFAYWGQGTLVTVSS
VL: DIQMTQSPSSLSASVGDRVTITCRASQDISNYLNWYQQKPGKAPKLLLYYTSRLHSGVPSRFSGSGSGTDYTLTISSLQPEDFATYFCQQGAGRPYTFGGGTKVEIK
notes: Hybrid antibody: heavy chain of hz140 with the light chain of hz182
With B2, the Kd in [7] came to 0.719 nM. Also, in assay [8], the off-rate constant (koff) came out at 0.000226 s⁻¹ and the kon turned out to be 315000 M⁻¹ s⁻¹. In assay [4], the Kd was 7.03 nM, the dissociation rate constant (koff) is 0.00108 s⁻¹ and the association rate constant (kon) came out at 154000 M⁻¹ s⁻¹.

These data come from patent US20230406921A1 (MABWELL SHANGHAI BIOSCIENCE, published 2023).
